The target of this assay is ALG-2 (human (endogenous in HeLa)) (UniProt O75340).
Sequence of UniProt O75340 (O75340 whole entry): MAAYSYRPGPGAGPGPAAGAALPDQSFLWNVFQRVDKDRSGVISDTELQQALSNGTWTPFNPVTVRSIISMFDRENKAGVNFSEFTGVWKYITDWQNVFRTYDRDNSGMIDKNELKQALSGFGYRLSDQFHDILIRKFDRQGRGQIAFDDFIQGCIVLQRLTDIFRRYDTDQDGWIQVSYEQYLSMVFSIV

B1: ALIX peptide (peptide)
peptide: QGPPYPTYPGYPGYCQ
B1: the viability of EGFP-expressing HeLa cells 1 hour after 50 uM digitonin in the presence of 10 uM peptide (about 60% without the peptide) stood at 37 % viability.

The values above are taken from paper PMC6150531.
